For series [1], the target named is T1, hPD-L1 expressed on the surface of Chinese hamster ovary (CHO) cells (CHO-hPD-L1) (Homo sapiens, UniProt Q9NZQ7).
T1 construct: expressed in transfected cells; host or cells: CHO
Nature of the series: Antibody titration by flow cytometry on CHO-hPD-L1 cells. The series is classed as cell-based. The following applies: 4° C., read-out: KD of Fluorescein-labeled antibody on CHO-hPD-L1. From the text:
(§1) To do this, we measured SPAM peptide inhibition of anti-PD-L1 antibody binding to hPD-L1 expressed on the surface of Chinese hamster ovary (CHO) cells (CHO-hPD-L1). […] Cells were washed again and analyzed by flow cytometry (FIG. 5B-C).
A general note: A flow cytometer gives signals particle by particle.

Series [2] has as its target T2, hPD-L1 (Homo sapiens, UniProt Q9NZQ7). In words: Binding of second-generation fusions after RNase treatment and in 25% human serum. Further details: target for immobilization and selection, the extracellular domain of hPD-L1 (from A18 to T239); hexahistidine tag (C). The following applies: 22° C., 25 pmol PD-L1; for binding to hPD-L1 after RNase treatment: RNase A 30 min 37° C.; for binding to hPD-L1 in human serum: RNase-treated fusions in 25% human serum in DMEM. How it is done: The sequences identified from Sanger sequencing (A,B,C,D) were tested under binding conditions modified to be similar to physiological conditions and compared to the wildtype sequence (S) (FIG. 14). Sequences were prepared as fusions in standard blocking buffer, as RNase-treated fusions (RNase A treatment for 30 min. at 37° C.) in standard blocking buffer, or as RNase-treated fusions in 25% human serum in DMEM. Binding was measured at 22° C. with 0 and 25 pmol biotinylated PD-L1.

The target in series [3] is T2, hPD-L1. Nature of the series: Radioactive binding assay of second-generation clones on immobilized human PD-L1. Further details: target for immobilization and selection, the extracellular domain of hPD-L1 (from A18 to T239); hexahistidine tag (C). As to conditions: 22° C., 2.5 or 12.5 pmol immobilized PD-L1.
In series [4] the target is T1, hPD-L1 expressed on the surface of Chinese hamster ovary (CHO) cells (CHO-hPD-L1). Nature of the series: Antibody competition by flow cytometry on CHO-hPD-L1 cells. The series is classed as cell-based. The following applies: pre-incubation 30 min 4° C., 0-20 μM; SPAM effect at 20 μM; 1 nM Atezolizumab, 10 nM Avelumab.
Excerpt: as §1
Cells were then washed three times with cold serum free DMEM. Cells were subsequently processed by flow cytometry with a BD FACSCalibur system using the FL1 channel. FlowJo v10.1 was used to gate to the major population and median FL1 fluorescence reported.

For series [5], the target named is T3, CHO-mPD-L1 cells which express mPD-L1 (Mus musculus, UniProt Q9EP73).
T3 construct: expressed in transfected cells; host or cells: CHO
Nature of the series: Antibody competition by flow cytometry on CHO-mPD-L1 cells. As to conditions: pre-treatment 0-20 μM, 50 nM antibody. The series is classed as cell-based. As to the method: We performed similar experiments with CHO-mPD-L1 cells which express mPD-L1 to determine if this effect was specific to hPD-L1 expression. We have developed two cross-reactive anti-hPD-L1/mPD-L1 antibodies, 16373 and 16377. These antibodies were labeled with Fluorescein, titrated against CHO-hPD-L1 and CHO-mPD-L1 cells (FIG. 12B-C) and subjected to competition experiments as described above.
The cells were washed once with cold serum free DMEM and incubated with 1 nM FAM-Atezolizumab, 10 nM FAM-Avelumab, 50 nM FAM-16373, or 50 nM FAM-16377 in serum free DMEM at 4° C. for 30 min. Cells were then washed three times with cold serum free DMEM. Cells were subsequently processed by flow cytometry with a BD FACSCalibur system using the FL1 channel. FlowJo v10.1 was used to gate to the major population and median FL1 fluorescence reported.

“Also recorded” adds a separate entry of the source. Where no end group is shown, it is not given here. [ ]: non-standard residue; d: D form. Pra = C#CC[C@H](N)C(=O)O

This note sets out measurements from patent publication US12643935B2, “PD-L1 binding peptides” (UNIVERSITY OF SOUTHERN CALIFORNIA, priority 2020, dated 2026).

T3 sequence (Q9EP73 19-290): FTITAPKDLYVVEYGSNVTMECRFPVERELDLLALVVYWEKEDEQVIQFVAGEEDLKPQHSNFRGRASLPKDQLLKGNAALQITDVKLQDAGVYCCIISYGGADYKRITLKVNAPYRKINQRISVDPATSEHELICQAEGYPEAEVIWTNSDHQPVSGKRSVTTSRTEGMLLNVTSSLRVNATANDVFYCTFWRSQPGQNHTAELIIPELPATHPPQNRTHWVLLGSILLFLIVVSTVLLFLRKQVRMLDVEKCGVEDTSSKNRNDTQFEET

The Kd is a measure of binding affinity in units of concentration. As for “Atezolizumab: hPD-L1 specific monoclonal antibody”, the Kd in series [1] was 0.2 nM.

With MEFTSDHSLNKFIILHYANNPF [Peptide C], in the series with hPD-L1 [2], the “binding to hPD-L1 after RNase treatment” value is “significant net binding; also recorded: show binding” and the “binding to hPD-L1 in human serum” value is on record as “significant net binding; also recorded: show binding”. Further, the “binding to immobilized human PD-L1 relative to parental SPAM (S)” value with hPD-L1 [3] is “comparable binding to the most frequent sequences; also recorded: better binding than the parental SPAM”.

Consider “YKLNLIHPHIFLMDWIFASG-Pra (YKLNLIHPHIFLMDWIFASG[Pra]-NH2; N-terminus assumed; SMILES C#CC[C@H](NC(=O)CNC(=O)[C@H](CO)NC(=O)[C@H](C)NC(=O)[C@H](Cc1ccccc1)NC(=O)[C@@H](NC(=O)[C@H](Cc1c[nH]c2ccccc12)NC(=O)[C@H](CC(=O)O)NC(=O)[C@H](CCSC)NC(=O)[C@H](CC(C)C)NC(=O)[C@H](Cc1ccccc1)NC(=O)[C@@H](NC(=O)[C@H](Cc1c[nH]cn1)NC(=O)[C@@H]1CCCN1C(=O)[C@H](Cc1c[nH]cn1)NC(=O)[C@@H](NC(=O)[C@H](CC(C)C)NC(=O)[C@H](CC(N)=O)NC(=O)[C@H](CC(C)C)NC(=O)[C@H](CCCCN)NC(=O)[C@@H](N)Cc1ccc(O)cc1)[C@@H](C)CC)[C@@H](C)CC)[C@@H](C)CC)C(N)=O) [SPAM-scramble, control scrambled peptide, reference compound]”, for which, in series [4], the “Fluorescein-Atezolizumab and Fluorescein-Avelumab binding to CHO-hPD-L1 after pre-incubation” value is reported as “not observed”.

As to MYSHNDHNLNKFWILHFAVNQM [Peptide B], in the series with hPD-L1 [2], the “binding to hPD-L1 after RNase treatment” value was “significant net binding; also recorded: show binding” and the “binding to hPD-L1 in human serum” value is given as “significant net binding; also recorded: show binding”. Further, the “binding to immobilized human PD-L1 relative to parental SPAM (S)” value with hPD-L1 [3] is listed as “better binding than the parental SPAM”.

“Cyclo[(AcTyr)(NMeAla)NPHL(Hyp)WS(Trp(Me))(NMeNle) (NMeNle)(Orn)C]-Gly-NH2 (XXNPHLXWSXXXXCG; N-methyl; non-natural residues; cyclised or stapled) [WL-12]”: in series [5], the “blocking of Fluorescein-16373 and Fluorescein-16377 in CHO-mPD-L1 cells” value is “blocking was absent”.

As to MYTLTDHILNKFWIMHYARNPT, in the series with hPD-L1 [2], the “binding to hPD-L1 after RNase treatment” value is recorded as “significant net binding; also recorded: show binding” and the “binding to hPD-L1 in human serum” value is listed as “significant net binding; also recorded: show binding”. Moreover, the “binding to immobilized human PD-L1 relative to parental SPAM (S)” value with hPD-L1 [3] is recorded as “comparable binding to the most frequent sequences; also recorded: better binding than the parental SPAM”.

Turning to MWSITDHNLNKFWILHYATKHG, in the series with hPD-L1 [2], the “binding to hPD-L1 after RNase treatment” value is reported as “significant net binding; also recorded: show binding” and the “binding to hPD-L1 in human serum” value was “significant net binding; also recorded: show binding”. Besides, in the series with hPD-L1 [3], the “binding to immobilized human PD-L1 relative to parental SPAM (S)” value was “better binding than the parental SPAM”.
